This passage reports binding result and Kd results from patent US20190022241A1 (AbbVie / Abbott, published 2019).

For experiment [1], the target named is T1, human SEZ6L ECD-His (human, UniProt Q9BYH1 29-955).
T1 construct: whole entry named
T1 sequence: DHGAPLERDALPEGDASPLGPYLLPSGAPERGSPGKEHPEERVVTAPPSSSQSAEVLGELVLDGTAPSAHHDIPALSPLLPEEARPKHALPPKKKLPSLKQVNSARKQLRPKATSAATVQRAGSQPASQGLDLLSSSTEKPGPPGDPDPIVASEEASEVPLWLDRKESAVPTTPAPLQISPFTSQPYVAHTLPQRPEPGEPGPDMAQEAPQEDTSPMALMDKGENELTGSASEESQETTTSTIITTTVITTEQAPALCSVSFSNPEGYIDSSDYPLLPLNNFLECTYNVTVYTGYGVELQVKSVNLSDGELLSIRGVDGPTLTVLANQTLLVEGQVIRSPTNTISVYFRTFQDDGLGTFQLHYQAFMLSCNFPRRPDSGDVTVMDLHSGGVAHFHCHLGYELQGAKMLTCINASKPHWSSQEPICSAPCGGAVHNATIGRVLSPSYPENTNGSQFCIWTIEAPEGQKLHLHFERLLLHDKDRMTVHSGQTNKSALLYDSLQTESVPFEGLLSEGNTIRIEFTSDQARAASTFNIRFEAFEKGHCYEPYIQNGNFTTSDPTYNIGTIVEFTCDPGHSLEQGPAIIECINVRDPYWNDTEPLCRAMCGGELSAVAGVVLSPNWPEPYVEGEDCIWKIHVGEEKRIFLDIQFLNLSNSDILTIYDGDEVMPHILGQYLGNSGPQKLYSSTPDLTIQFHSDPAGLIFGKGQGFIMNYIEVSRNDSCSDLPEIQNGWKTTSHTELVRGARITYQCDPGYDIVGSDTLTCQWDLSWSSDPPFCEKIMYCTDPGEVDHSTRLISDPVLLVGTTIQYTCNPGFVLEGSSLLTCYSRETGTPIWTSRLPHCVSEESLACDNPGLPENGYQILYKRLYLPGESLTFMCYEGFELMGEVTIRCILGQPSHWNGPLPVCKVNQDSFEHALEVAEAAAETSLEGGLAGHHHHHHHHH
Description: ELISA on plates coated with SEZ6L protein. (In general: In an ELISA, binding on a coated surface is turned into a signal by an enzyme label.)
Description: (§1) To determine cross reactivity to family member proteins, SEZ6L and SEZ6L2, an ELISA-based assay was used. Plates were coated with SEZ6, SEZ6L, or SEZ6L2 proteins at 0.2 μg/mL in PBS overnight. After washing with PBS containing 0.05% (v/v) Tween 20 (PB ST), the wells were blocked with 2% (w/v) BSA in PBS (PB SA), 100 μL/well for 1 hour at room temperature. Antibody was then added at 1 μg/mL in 100 μL PBSA for 1 hour at room temperature. After washing with PBST, 100 μL/well HRP-labeled goat anti-mouse IgG diluted 1:2,000 in PBSA for 1 hour at room temperature. […] After developing, an equal volume of 2M H₂SO₄ was added to stop substrate development and analyzed by spectrophotometer at OD 450.

Experiment [2] concerns the target T2, human SEZ6L2 ECD-His (human, UniProt Q6UXD5 28-843).
T2 construct: whole entry named
In words: ELISA on plates coated with SEZ6L2 protein.
Description: as §1

For experiment [3], the target named is T3, extracellular domain of cynomolgus SEZ6 on yeast (cynomolgus, UniProt Q53EL9 23-925 (human entry)).
T3 construct: yeast display; the whole entry is named; also called cSEZ6; cynomolgus SEZ6 ECD
T3 chain: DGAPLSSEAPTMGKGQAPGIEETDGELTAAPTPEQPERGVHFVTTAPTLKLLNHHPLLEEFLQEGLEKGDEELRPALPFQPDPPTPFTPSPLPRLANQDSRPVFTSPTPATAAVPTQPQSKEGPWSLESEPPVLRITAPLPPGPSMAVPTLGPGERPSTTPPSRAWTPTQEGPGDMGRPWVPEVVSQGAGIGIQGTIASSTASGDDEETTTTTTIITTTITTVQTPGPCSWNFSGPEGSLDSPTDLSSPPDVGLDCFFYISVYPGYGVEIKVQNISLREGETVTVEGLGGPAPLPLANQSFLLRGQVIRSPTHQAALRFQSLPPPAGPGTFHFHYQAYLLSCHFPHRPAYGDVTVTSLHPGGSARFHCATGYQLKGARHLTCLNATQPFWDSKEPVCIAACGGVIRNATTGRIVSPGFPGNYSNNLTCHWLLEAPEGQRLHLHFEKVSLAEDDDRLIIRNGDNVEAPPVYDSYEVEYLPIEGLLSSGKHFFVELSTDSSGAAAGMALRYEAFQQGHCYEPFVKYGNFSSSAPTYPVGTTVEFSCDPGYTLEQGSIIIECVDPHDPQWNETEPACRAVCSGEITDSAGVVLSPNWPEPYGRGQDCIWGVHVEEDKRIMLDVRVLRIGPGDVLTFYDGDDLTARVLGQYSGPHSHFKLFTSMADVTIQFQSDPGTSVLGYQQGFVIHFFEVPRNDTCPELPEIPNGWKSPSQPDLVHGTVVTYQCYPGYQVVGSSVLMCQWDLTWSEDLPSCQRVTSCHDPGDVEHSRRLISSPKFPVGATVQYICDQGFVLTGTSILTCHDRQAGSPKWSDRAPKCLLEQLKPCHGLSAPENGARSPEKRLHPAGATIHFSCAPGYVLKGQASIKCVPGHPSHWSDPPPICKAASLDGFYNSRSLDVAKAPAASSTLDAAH
Description: flow cytometry, yeast displaying cynomolgus SEZ6 ECD, 5 ug/mL antibody. On the technique in general: Flow cytometry measures light scatter and fluorescence of single cells or particles in a stream.
Description: (§2) Briefly 1×10⁵ cells per well of Neuro2a, RIN-5mF, or yeast displaying cynomolgus SEZ6 cells were incubated for 30 minutes with 50 μL PBS (2% FCS) buffer with 5 μg/mL antibody. […] After incubating for 15 minutes cells were washed twice with the PBS buffer and re-suspended in the same with DAPI for flow cytometry analysis of Neuro2a and Rin-m5F or buffer without DAPI for flow cytometric analysis of yeast cells with cSEZ6.

In experiment [4] the target is T4, mouse SEZ6 on Neuro2a cells (mouse, UniProt Q7TSK2 20-991).
T4 construct: endogenous on Neuro2a cells; also called murine SEZ6; mSEZ6
In words: flow cytometry, Neuro2a cells, 5 ug/mL antibody.
Description: as §2

Experiment [5] has as its target T5, hSEZ6-ECD-His (human, UniProt Q53EL9 20-925).
T5 construct: the whole entry is named; also called recombinant SEZ6-His; human recombinant SEZ6-His
In words: bio-layer interferometry (ForteBio RED) or surface plasmon resonance (Biacore 2000) on human SEZ6-His; the table does not say which; column Hu Affinity (Kd, nM). Background: BLI is a label-free optical method that tracks binding on a fibre tip over time.
Description: (§3) Various methods were used to analyze the binding and immunochemical characteristics of selected SEZ6 modulators generated as set forth above.

Experiment [6] has as its target T6, rat SEZ6 on RIN-m5F cells (rat, UniProt Q7TSK2 20-991 (mouse entry)).
T6 construct: endogenous on RIN-m5F cells; also called rSEZ6
T6 chain: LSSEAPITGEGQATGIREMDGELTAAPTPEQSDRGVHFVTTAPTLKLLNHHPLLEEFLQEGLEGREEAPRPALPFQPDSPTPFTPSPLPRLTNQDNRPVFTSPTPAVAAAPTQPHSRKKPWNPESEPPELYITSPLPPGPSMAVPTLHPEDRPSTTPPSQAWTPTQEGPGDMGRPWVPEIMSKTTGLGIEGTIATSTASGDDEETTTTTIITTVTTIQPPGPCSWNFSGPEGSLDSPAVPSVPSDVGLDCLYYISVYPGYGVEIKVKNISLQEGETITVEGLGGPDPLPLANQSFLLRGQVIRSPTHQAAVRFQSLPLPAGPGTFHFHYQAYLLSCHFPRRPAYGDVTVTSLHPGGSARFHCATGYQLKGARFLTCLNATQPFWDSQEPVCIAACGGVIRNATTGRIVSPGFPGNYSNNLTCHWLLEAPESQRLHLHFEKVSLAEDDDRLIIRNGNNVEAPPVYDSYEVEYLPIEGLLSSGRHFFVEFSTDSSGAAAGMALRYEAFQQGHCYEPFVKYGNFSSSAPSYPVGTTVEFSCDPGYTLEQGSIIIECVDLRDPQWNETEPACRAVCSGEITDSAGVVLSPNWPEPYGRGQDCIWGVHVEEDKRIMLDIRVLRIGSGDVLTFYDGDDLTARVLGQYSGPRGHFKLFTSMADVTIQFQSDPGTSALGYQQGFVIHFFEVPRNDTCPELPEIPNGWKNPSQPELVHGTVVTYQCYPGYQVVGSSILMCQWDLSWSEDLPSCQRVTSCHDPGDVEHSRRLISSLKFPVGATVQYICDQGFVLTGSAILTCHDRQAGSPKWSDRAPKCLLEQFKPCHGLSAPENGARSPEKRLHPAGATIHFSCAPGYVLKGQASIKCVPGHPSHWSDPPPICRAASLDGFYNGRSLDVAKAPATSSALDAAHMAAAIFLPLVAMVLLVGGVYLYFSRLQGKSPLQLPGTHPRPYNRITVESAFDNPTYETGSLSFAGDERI
Description: flow cytometry on RIN-m5F cells expressing rat SEZ6, verified by BLI or SPR on rat SEZ6-His.
Description: as §2
To verify the cross reactivity data above for rat SEZ6 and to determine the affinity and kinetic constants kₒₙ and koff of the selected effectors, either bio-layer interferometry analysis on a ForteBio RED (ForteBio, Inc.) or surface plasmon resonance on a Biacore 2000 (GE Healthcare) were conducted.

Experiment [7] deals with T4, mouse SEZ6 on Neuro2a cells. Description: flow cytometry on Neuro2a cells expressing mouse SEZ6.
Description: as §2
In experiment [8] the target is T2, human SEZ6L2 ECD-His. In words: mark of Table 5 for antibodies that bind SEZ6L2.
The target in experiment [9] is T6, rat SEZ6 on RIN-m5F cells. Description: flow cytometry, RIN-m5F cells, 5 ug/mL antibody.
Description: as §2
The target in experiment [10] is T7, rSEZ6-ECD-His (rat, UniProt Q7TSK2 20-922 (mouse entry)).
T7 construct: the whole entry is named; also called rat recombinant SEZ6-His; rat SEZ6 ECD
T7 chain: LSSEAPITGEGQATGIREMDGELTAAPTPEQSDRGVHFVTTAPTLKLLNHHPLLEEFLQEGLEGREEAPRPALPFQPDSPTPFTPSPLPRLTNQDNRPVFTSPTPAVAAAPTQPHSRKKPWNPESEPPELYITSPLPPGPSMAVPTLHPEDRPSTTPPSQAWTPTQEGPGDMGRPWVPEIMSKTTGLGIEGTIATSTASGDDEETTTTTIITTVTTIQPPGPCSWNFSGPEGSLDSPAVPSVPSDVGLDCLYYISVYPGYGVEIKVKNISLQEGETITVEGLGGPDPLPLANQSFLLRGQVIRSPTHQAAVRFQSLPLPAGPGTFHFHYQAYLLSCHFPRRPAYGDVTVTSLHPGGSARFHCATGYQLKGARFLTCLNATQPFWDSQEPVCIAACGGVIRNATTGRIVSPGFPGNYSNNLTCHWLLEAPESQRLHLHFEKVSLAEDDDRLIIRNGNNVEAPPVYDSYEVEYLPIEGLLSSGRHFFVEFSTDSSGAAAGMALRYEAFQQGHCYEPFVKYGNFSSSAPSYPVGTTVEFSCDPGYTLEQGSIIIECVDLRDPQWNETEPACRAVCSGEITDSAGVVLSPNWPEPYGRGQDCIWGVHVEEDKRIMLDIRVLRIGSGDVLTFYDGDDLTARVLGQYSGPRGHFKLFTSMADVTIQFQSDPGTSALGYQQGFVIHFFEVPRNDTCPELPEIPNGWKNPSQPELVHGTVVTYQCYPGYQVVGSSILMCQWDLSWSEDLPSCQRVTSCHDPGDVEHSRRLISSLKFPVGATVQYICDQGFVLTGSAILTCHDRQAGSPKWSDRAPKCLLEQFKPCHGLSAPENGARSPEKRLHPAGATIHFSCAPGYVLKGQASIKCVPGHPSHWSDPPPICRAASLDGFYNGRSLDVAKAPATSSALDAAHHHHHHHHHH
In words: bio-layer interferometry (ForteBio RED) or surface plasmon resonance (Biacore 2000) on rat SEZ6-His; the table does not say which; column Rat XR (Kd, nM).
Description: as §3

In experiment [11] the target is T5, hSEZ6-ECD-His. In words: SPR, Biacore 2000 (data not shown).

As usually defined, the Kd is the equilibrium constant for the complex coming apart. A low value points to a tighter complex.

T2 sequence (Q6UXD5 other isoform, or with tags, fused parts or gaps): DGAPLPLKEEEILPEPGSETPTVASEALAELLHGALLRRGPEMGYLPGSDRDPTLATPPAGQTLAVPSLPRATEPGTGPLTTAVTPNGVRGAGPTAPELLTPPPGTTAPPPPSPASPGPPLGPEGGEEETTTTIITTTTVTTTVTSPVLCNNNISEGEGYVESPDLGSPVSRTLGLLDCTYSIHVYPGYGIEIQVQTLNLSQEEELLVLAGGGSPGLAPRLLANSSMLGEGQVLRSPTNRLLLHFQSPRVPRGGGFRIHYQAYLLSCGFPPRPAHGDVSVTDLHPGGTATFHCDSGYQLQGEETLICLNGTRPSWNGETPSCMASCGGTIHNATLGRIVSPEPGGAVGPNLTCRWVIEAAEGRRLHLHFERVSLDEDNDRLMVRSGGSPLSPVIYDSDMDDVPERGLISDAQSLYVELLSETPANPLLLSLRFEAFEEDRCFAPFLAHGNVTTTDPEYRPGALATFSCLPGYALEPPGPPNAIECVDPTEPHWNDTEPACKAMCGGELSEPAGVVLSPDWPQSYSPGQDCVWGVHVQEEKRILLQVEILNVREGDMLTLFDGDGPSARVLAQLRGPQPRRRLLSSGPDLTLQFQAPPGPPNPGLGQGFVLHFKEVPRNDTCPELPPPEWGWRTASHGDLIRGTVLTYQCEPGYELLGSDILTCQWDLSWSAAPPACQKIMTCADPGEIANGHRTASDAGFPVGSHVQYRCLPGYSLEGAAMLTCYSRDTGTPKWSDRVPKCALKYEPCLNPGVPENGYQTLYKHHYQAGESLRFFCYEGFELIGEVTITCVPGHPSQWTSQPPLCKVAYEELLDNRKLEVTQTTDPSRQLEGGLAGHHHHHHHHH

B1: SC17.24 (antibody, V domains shown)
VH: QVQLQQSDAELVKPGASVKISCKVSGYTFTDHTIHWMKQRPEQGLEWIGYIYPRDGSTKYNEEFKGKATLTADKSSSTAYMQLNSLTSEDSAVYFCARSYSNYFDYWGQGTTLTVSS
VL: DIVMSQSPSSLAVSVGEKVTMSCKSSQSLLYSSNQKSYLAWYQQKPGQSPKLLIYWASTRESGVPDRFTGSGSGTDFTLTISSVQAEDLAVYYCKQSYNLRTFGGGTKLEIK
notes: murine mAb
With B1, the binding result in [1] is listed as “no binding (tested: 1 µg/mL)”; in [2] it was “no binding (tested: 1 µg/mL)”; in experiment [3], “binds”; in experiment [4] it was “binds”; in [6], “no binding (tested: 5 µg/mL)”. Further, binding in [5] was characterised by a dissociation constant (Kd) of 5.1 nM.

B2: SC17.28 (antibody, V domains shown)
VH: QVHLPQSRPELVKPGASVKISCKASGYGFTRSYIHWVKQRPGQGLEWIGYISSGSGGTTYNQKFKGKASLTADNPSSTAYMHLSSLTSEDSAIYFCARGGVRYFDVWGAGTTVTVSS
VL: DILLTQSPAILSVSPGEGVSFSCRASQSIGTSIHWYQQRTNGSPRLLIKYASESISGIPSRFSGSGSGTDFTLRINSLESEDIADYYCQQSNSWPLTFGAGTKLELK
notes: murine mAb
On to B2, for which the binding result in experiment [1] was “no binding (tested: 1 µg/mL)”; in experiment [7], “no binding (tested: 5 µg/mL)”; in experiment [8] it was “binds”; in [9], “binds”. Further, the values for the Kd in experiment [10] and in experiment [5] were 31 nM and 22.1 nM, respectively.

B3: SC17.36 (antibody, V domains shown)
VH: EVQLQESGPSLVKPSQSQSLTCSVTGDSITSDYWNWIRKFPGKKVEYMGYINYSGSTYYNPSLKSRISITRDTSKNQYYLQLNSVTSEDTATYYCARTSYYNKFLPFAYWGQGTLVTVSA
VL: QIVLTQSPALMSASPGEKVTMTCSASSSVSYMYWYQQKPRSSPKPWIYLTSNLASGVPARFSGSGSGTSYSLTISSMEAEDAATYYCQQWSSNPPTFGGGTKLEIK
notes: murine mAb
Turning to B3, the binding result is listed as “no binding (tested: 1 µg/mL)” in [1]; “no binding (tested: 5 µg/mL)” in [7]; “no binding (tested: 1 µg/mL)” in experiment [2]; “binds” in experiment [3]; “no binding (tested: 5 µg/mL)” in experiment [6]. In [5], this molecule had a Kd of 6.3 nM.

B4: hSC17.46 (antibody, human IgG1, V domains shown)
VH: QVQLVQSGAEVKKPGASVKVSCKASGYTFTSYWINWVRQAPGQGLEWIGNIFPDTTTTNYNEKFKGRVTLTRDTSISTAYMELSRLRSDDTAVYYCAREYYDGTYDAMDYWGQGTLVTVSS
VL: AIQMTQSPSSLSASVGDRVTITCKASQSVNNDVAWYQQKPGKAPKLLIYYASNRYTGVPSRFSGSGSGTDFTLTISSLQPEDFATYFCQQDYSSPRTFGQGTKLEIK
notes: humanized, human IgG1/kappa
Turning to B4, in [11], the binding result was “binds”.
